From article PMC5645086, “Analysis of the interaction of Plexin-B1 and Plexin-B2 with Rnd family proteins” (PLoS ONE, 2017)
Residue numbers refer to the chain shown, from its start. Values belong to the molecule of their own block, whether it stands above or below them.

Experiments:
Rnd2 (Homo sapiens) = Rnd2 (Homo sapiens) (UniProt P52198); settings: cited from earlier work
[1] = target: T1, Rnd2 GTP-binding domain (residues 2-184) (UniProt P52198 2-184); assay: ITC; Plexin-B-RBD (400-600 uM, syringe) titrated into Rnd protein (40-60 uM, cell); 25°C; buffer 2: 50 mM sodium phosphate pH 7.0, 150 mM NaCl, 4 mM MgCl2, 3 mM DTT; independent binding sites model; settings: both partners purified
T1 construct: source: E. coli BL21 (DE3), purified (Nickel-NTA, TEV cleavage; in some cases ion exchange or size exclusion chromatography); not shown: His6, N-terminal, cleaved
T1 sequence (looked up): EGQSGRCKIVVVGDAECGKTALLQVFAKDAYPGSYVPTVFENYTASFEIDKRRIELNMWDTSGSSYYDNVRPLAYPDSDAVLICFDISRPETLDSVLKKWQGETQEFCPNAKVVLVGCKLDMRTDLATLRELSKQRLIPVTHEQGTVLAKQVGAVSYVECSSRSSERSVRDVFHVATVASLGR

[2] = target: T2, Rnd1 GTP-binding domain (residues 1-191) (UniProt Q92730 1-191); assay: as above; settings: both partners purified
T2 construct: source: E. coli Rosetta 2 (DE3), purified (Nickel-NTA, TEV cleavage; in some cases ion exchange or size exclusion chromatography); not shown: His6, N-terminal, cleaved
T2 sequence (looked up): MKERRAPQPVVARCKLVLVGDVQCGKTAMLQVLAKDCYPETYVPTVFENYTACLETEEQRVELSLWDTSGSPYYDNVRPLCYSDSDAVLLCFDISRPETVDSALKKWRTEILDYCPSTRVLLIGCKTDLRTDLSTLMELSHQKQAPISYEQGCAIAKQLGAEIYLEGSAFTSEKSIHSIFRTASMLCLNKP

[3] = target: T3, Rnd3 GTP-binding domain (residues 16-200), wild type (UniProt P61587 16-200); assay: as above; settings: both partners purified
T3 construct: source: E. coli BL21 (DE3), purified (Nickel-NTA, TEV cleavage; in some cases ion exchange or size exclusion chromatography); not shown: His6, N-terminal, cleaved
T3 sequence (looked up): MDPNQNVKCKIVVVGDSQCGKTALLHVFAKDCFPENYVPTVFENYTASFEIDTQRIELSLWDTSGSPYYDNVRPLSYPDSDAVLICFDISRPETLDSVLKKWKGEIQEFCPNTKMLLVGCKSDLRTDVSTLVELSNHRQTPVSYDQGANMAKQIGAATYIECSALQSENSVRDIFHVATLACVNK

[4] = target: T4, Rnd3-Y60A (GTP-binding domain, residues 16-200) (UniProt P61587 16-200, Y60A); assay: as above; settings: both partners purified
T4 construct: source: E. coli BL21 (DE3), purified in the same way as wild type Rnd3; not shown: His6, N-terminal, cleaved
T4 sequence (looked up): T3 sequence (looked up) with Y45A

[5] = target: T5, Rnd3-F124Y (GTP-binding domain, residues 16-200) (UniProt P61587 16-200, F124Y); assay: as above; settings: both partners purified
T5 construct: source: E. coli Rosetta 2 (DE3), purified in the same way as wild type Rnd3; not shown: His6, N-terminal, cleaved
T5 sequence (looked up): T3 sequence (looked up) with F109Y

[6] = target: T6, Rnd3-N86R (GTP-binding domain, residues 16-200) (UniProt P61587 16-200, N86R); assay: as above; settings: both partners purified
T6 construct: source: E. coli BL21 (DE3), purified in the same way as wild type Rnd3; not shown: His6, N-terminal, cleaved
T6 sequence (looked up): T3 sequence (looked up) with N71R

[7] = target: the molecule itself; assay: ITC; control dilution: Plexin-B1-RBD titrated into buffer alone, same conditions as the binding titrations; dimer to monomers
[8] = target: T7, Rnd1 GTP-binding domain (residues 1-191) (UniProt Q92730 1-191); assay: ITC; Plexin-B1-RBD in the syringe titrated into Rnd1 in the cell; low salt buffer 1: 50 mM sodium phosphate pH 7.0, 50 mM NaCl, 4 mM MgCl2, 3 mM DTT, 25°C; independent binding sites model; mean and SD of 5 fitted binding curves; settings: both partners purified
T7 construct: Cloned into pETDuet-1; tag removed with TEV protease; source: E. coli Rosetta 2 (DE3), purified (Nickel-NTA chromatography, TEV cleavage; in some cases ion exchange or size exclusion chromatography); not shown: His6, N-terminal, cleaved
T7 sequence (looked up): T2 sequence (looked up)

Sequence of Rnd2 (Homo sapiens) (P52198 1-224): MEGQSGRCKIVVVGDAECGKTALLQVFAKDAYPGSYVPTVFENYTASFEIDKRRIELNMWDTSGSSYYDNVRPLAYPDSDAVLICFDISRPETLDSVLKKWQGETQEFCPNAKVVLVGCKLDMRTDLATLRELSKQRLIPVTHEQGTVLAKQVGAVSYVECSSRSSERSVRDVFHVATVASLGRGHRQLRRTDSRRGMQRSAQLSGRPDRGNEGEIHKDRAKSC

Molecule: Plexin-B1 RBD (from UniProt O43157)
- Kd (Rnd2 (Homo sapiens)): > 20 µM

- Kd [1]: 4.93 µM
- dH [1]: -4.29 kcal/mol
- stoichiometry N [1]: 1.15
- Kd [2]: 11.1 µM
- dH [2]: -6.67 kcal/mol
- stoichiometry N [2]: 1.05
- Kd [3]: 3.01 µM
- dH [3]: -9.33 kcal/mol
- stoichiometry N [3]: 1.23
- Kd [4]: 3.06 µM
- dH [4]: -5.64 kcal/mol
- stoichiometry N [4]: 1.06
- Kd [5]: 2.97 µM
- dH [5]: -7.73 kcal/mol
- stoichiometry N [5]: 1.14
- Kd [6]: 3.86 µM
- dH [6]: -7.37 kcal/mol
- stoichiometry N [6]: 1.13
B1: Plexin-B2-RBD (Rho-binding domain of Plexin-B2, residues 1452-1562) (domain or fragment, UniProt O15031 1452-1562, looked up)
chain: GLLGDDVEYAPLTVSVIVQDEGVDAIPVKVLNCDTISQVKEKIIDQVYRGQPCSCWPRPDSVVLEWRPGSTAQILSDLDLTSQREGRWKRVNTLMHYNVRDGATLILSKVG
notes: Vector pETDuet-1; tag removed with TEV protease; source: E. coli BL21 (DE3), purified (Nickel-NTA, TEV cleavage; in some cases ion exchange or size exclusion chromatography); not shown: His6, N-terminal, cleaved

- Kd [1]: 7.64 µM
- dH [1]: -7.33 kcal/mol
- stoichiometry N [1]: 1.16
- Kd [2]: 2.37 µM
- dH [2]: -15.6 kcal/mol
- stoichiometry N [2]: 0.85
- Kd [3]: 6.62 µM
- dH [3]: -9.73 kcal/mol
- stoichiometry N [3]: 1.07
- Kd [4]: 7.26 µM
- dH [4]: -2.76 kcal/mol
- stoichiometry N [4]: 1.02
- Kd [5]: 4.6 µM
- dH [5]: -8.65 kcal/mol
- stoichiometry N [5]: 1.04
- Kd [6]: 8.12 µM
- dH [6]: -5.53 kcal/mol
- stoichiometry N [6]: 0.91
B2: Plexin-B1-RBD (Rho-binding domain of Plexin-B1, residues 1746-1851), histidine-tagged (domain or fragment, UniProt O43157 1746-1851, looked up)
chain: YRPLTLNALLAVGPGAGEAQGVPVKVLDCDTISQAKEKMLDQLYKGVPLTQRPDPRTLDVEWRSGVAGHLILSDEDVTSEVQGLWRRLNTLQHYKVPDGATVALVP
notes: A TEV protease site lies between the hexahistidine tag and the domain; Vector pETDuet-1; also called HisPlexin-B1; Plexin-B-RBD; source: E. coli BL21 (DE3), purified (Nickel-NTA; in some cases ion exchange or size exclusion chromatography); not shown: His6, N-terminal, kept
- binding result [7]: binds

- Kd [8]: 5.37 µM
- stoichiometry N [8]: 0.94
B3: Plexin-B1-RBD (Rho-binding domain of Plexin-B1, residues 1746-1851), histidine-tagged (domain or fragment, UniProt O43157 1746-1851, looked up)
chain: B2 chain
notes: A TEV protease cleavage site lies between the hexahistidine tag and the domain; removal of the tag was inefficient for Plexin-B1-RBD, so the tag was kept; Cloned into pETDuet-1; also called HisPlexin-B1; source: E. coli BL21 (DE3), purified (Nickel-NTA chromatography; in some cases ion exchange or size exclusion chromatography); not shown: His6, N-terminal, kept
